“And” between values parts separate entries of the source, which are not always exact repeats. Equal entries are not always repeated.
B1: Lysozyme C, P61626 (parent)
chain: MKALIVLGLVLLSVTVQGKVFERCELARTLKRLGMDGYRGISLANWMCLAKWESGYNTRATNYNAGDRSTDYGIFQINSRYWCNDGKTPGAVNACHLSCSALLQDNIADAVACAKRVVRDPQGIRAWVAWRNRCQNRDVRQYVQGCGV

Variants of: B1
Conditions: Homo sapiens; pH 2.61; Thermal; DSC; glycine 0.05 M; reversible: yes; structure 1LZ1; whole UniProt chain shown

| Variant | Tm [°C] | unfolding enthalpy (calorimetric) [kcal/mol] | unfolding enthalpy (van 't Hoff) [kcal/mol] |
| --- | --- | --- | --- |
| V92S | 62.1 | 105 | 110 |
| A50L | 63.1 | 94.9 | 97.8 |

Same assay, conditions: Homo sapiens; pH 2.7; 64.9 °C; Thermal; DSC; glycine 0.05 M; reversible: yes; structure 1LZ1; whole UniProt chain shown

| Variant | ddG of mutation (higher = less stable) [kcal/mol] |
| --- | --- |
| V92S | 0.38 |
| R68G | -0.26 |
| Q76G | -1.86 |
| E53L | 0.53 |
| H96G | 0.12 |
| V118F | 1.65 |
| A114M | -0.02 |
| A50L | 0.1 |
| G55Q | 0.26 |

Same assay, conditions: Homo sapiens; pH 2.7; Thermal; DSC; glycine 0.05 M; reversible: yes; structure 1LZ1; whole UniProt chain shown

| Variant | Tm | change of melting temperature, mutant - wild type (higher = more stable) [°C] | heat capacity change of unfolding [kcal/mol/K] | unfolding enthalpy (calorimetric) [kcal/mol] |
| --- | --- | --- | --- | --- |
| V92S | 63.7 °C and 64.9 °C | -1.2 | 1.22 | 108 |
| R68G | 65.8 °C and 64.9 °C | 0.9 | 1.46 | 100 |
| Q76G | – | 5.7 | 1.34 | 109 |
| E53L | 63.1 °C and 64.9 °C | -1.8 | 1.05 | 99 |
| H96G | 64.4 °C and 64.9 °C | -0.5 | 1.58 | 109 |
| V118F | – | -6.5 | 0.93 | 87.2 |
| A114M | 65 °C and 64.9 °C | 0.1 | 1.31 | 98.7 |
| A50L | 64.6 °C and 64.9 °C | -0.3 | 1.27 | 98.2 |
| N45L | 65.3 °C | 0.4 | – | – |
| G55Q | 64.1 °C and 64.9 °C | -0.8 | 1.15 | 108 |

Same assay, conditions: Homo sapiens; pH 2.83; Thermal; DSC; glycine 0.05 M; reversible: yes; structure 1LZ1; whole UniProt chain shown

| Variant | Tm [°C] | unfolding enthalpy (calorimetric) [kcal/mol] | unfolding enthalpy (van 't Hoff) [kcal/mol] |
| --- | --- | --- | --- |
| V92S | 66 | 109 | 115 |
| V118F | 61 | 84.6 | 92 |
| A50L | 66.9 | 102 | 104 |

Same assay, conditions: Homo sapiens; pH 3.28; Thermal; DSC; glycine 0.05 M; reversible: yes; structure 1LZ1; whole UniProt chain shown

| Variant | Tm [°C] | unfolding enthalpy (calorimetric) [kcal/mol] | unfolding enthalpy (van 't Hoff) [kcal/mol] |
| --- | --- | --- | --- |
| V92S | 72.2 | 117 | 122 |

Same assay, conditions: Homo sapiens; pH 2.58; Thermal; DSC; glycine 0.05 M; reversible: yes; structure 1LZ1; whole UniProt chain shown

| Variant | Tm [°C] | unfolding enthalpy (calorimetric) [kcal/mol] | unfolding enthalpy (van 't Hoff) [kcal/mol] |
| --- | --- | --- | --- |
| R68G | 63.7 | 99.9 | 111 |

Same assay, conditions: Homo sapiens; pH 2.78; Thermal; DSC; glycine 0.05 M; reversible: yes; structure 1LZ1; whole UniProt chain shown

| Variant | Tm [°C] | unfolding enthalpy (calorimetric) [kcal/mol] | unfolding enthalpy (van 't Hoff) [kcal/mol] |
| --- | --- | --- | --- |
| R68G | 67.3 | 102 | 114 |
| Q76G | 72.5 | 119 | 127 |

Same assay, conditions: Homo sapiens; pH 3.11; Thermal; DSC; glycine 0.05 M; reversible: yes; structure 1LZ1; whole UniProt chain shown

| Variant | Tm [°C] | unfolding enthalpy (calorimetric) [kcal/mol] | unfolding enthalpy (van 't Hoff) [kcal/mol] |
| --- | --- | --- | --- |
| R68G | 73 | 113 | 123 |

Same assay, conditions: Homo sapiens; pH 2.59; Thermal; DSC; glycine 0.05 M; reversible: yes; structure 1LZ1; whole UniProt chain shown

| Variant | Tm [°C] | unfolding enthalpy (calorimetric) [kcal/mol] | unfolding enthalpy (van 't Hoff) [kcal/mol] |
| --- | --- | --- | --- |
| Q76G | 68.3 | 113 | 121 |

Same assay, conditions: Homo sapiens; pH 3.15; Thermal; DSC; glycine 0.05 M; reversible: yes; structure 1LZ1; whole UniProt chain shown

| Variant | Tm [°C] | unfolding enthalpy (calorimetric) [kcal/mol] | unfolding enthalpy (van 't Hoff) [kcal/mol] |
| --- | --- | --- | --- |
| Q76G | 78.7 | 127 | 135 |

Same assay, conditions: Homo sapiens; pH 2.56; Thermal; DSC; glycine 0.05 M; reversible: yes; structure 1LZ1; whole UniProt chain shown

| Variant | Tm [°C] | unfolding enthalpy (calorimetric) [kcal/mol] | unfolding enthalpy (van 't Hoff) [kcal/mol] |
| --- | --- | --- | --- |
| E53L | 61.2 | 94.9 | 105 |
| A114M | 62.5 | 95.1 | 98 |

Same assay, conditions: Homo sapiens; pH 3.25; Thermal; DSC; glycine 0.05 M; reversible: yes; structure 1LZ1; whole UniProt chain shown

| Variant | Tm [°C] | unfolding enthalpy (calorimetric) [kcal/mol] | unfolding enthalpy (van 't Hoff) [kcal/mol] |
| --- | --- | --- | --- |
| E53L | 70.8 | 105 | 110 |

Same assay, conditions: Homo sapiens; pH 2.53; Thermal; DSC; glycine 0.05 M; reversible: yes; structure 1LZ1; whole UniProt chain shown

| Variant | Tm [°C] | unfolding enthalpy (calorimetric) [kcal/mol] | unfolding enthalpy (van 't Hoff) [kcal/mol] |
| --- | --- | --- | --- |
| H96G | 61.5 | 103 | 108 |

Same assay, conditions: Homo sapiens; pH 2.75; Thermal; DSC; glycine 0.05 M; reversible: yes; structure 1LZ1; whole UniProt chain shown

| Variant | Tm [°C] | unfolding enthalpy (calorimetric) [kcal/mol] | unfolding enthalpy (van 't Hoff) [kcal/mol] |
| --- | --- | --- | --- |
| H96G | 65.2 | 110 | 112 |

Same assay, conditions: Homo sapiens; pH 3.1; Thermal; DSC; glycine 0.05 M; reversible: yes; structure 1LZ1; whole UniProt chain shown

| Variant | Tm [°C] | unfolding enthalpy (calorimetric) [kcal/mol] | unfolding enthalpy (van 't Hoff) [kcal/mol] |
| --- | --- | --- | --- |
| H96G | 71 | 118 | 120 |

Same assay, conditions: Homo sapiens; pH 2.62; Thermal; DSC; glycine 0.05 M; reversible: yes; structure 1LZ1; whole UniProt chain shown

| Variant | Tm [°C] | unfolding enthalpy (calorimetric) [kcal/mol] | unfolding enthalpy (van 't Hoff) [kcal/mol] |
| --- | --- | --- | --- |
| V118F | 56.8 | 79.1 | 85.1 |

Same assay, conditions: Homo sapiens; pH 3.26; Thermal; DSC; glycine 0.05 M; reversible: yes; structure 1LZ1; whole UniProt chain shown

| Variant | Tm [°C] | unfolding enthalpy (calorimetric) [kcal/mol] | unfolding enthalpy (van 't Hoff) [kcal/mol] |
| --- | --- | --- | --- |
| V118F | 67.6 | 89.4 | 95.4 |

Same assay, conditions: Homo sapiens; pH 3.19; Thermal; DSC; glycine 0.05 M; reversible: yes; structure 1LZ1; whole UniProt chain shown

| Variant | Tm [°C] | unfolding enthalpy (calorimetric) [kcal/mol] | unfolding enthalpy (van 't Hoff) [kcal/mol] |
| --- | --- | --- | --- |
| A114M | 72.9 | 109 | 112 |

Same assay, conditions: Homo sapiens; pH 3.23; Thermal; DSC; glycine 0.05 M; reversible: yes; structure 1LZ1; whole UniProt chain shown

| Variant | Tm [°C] | unfolding enthalpy (calorimetric) [kcal/mol] | unfolding enthalpy (van 't Hoff) [kcal/mol] |
| --- | --- | --- | --- |
| A50L | 73.2 | 108 | 111 |

Same assay, conditions: Homo sapiens; pH 2.48; Thermal; DSC; glycine 0.05 M; reversible: yes; structure 1LZ1; whole UniProt chain shown

| Variant | Tm [°C] | unfolding enthalpy (calorimetric) [kcal/mol] | unfolding enthalpy (van 't Hoff) [kcal/mol] |
| --- | --- | --- | --- |
| G55Q | 60.7 | 102 | 108 |

Same assay, conditions: Homo sapiens; pH 2.73; Thermal; DSC; glycine 0.05 M; reversible: yes; structure 1LZ1; whole UniProt chain shown

| Variant | Tm [°C] | unfolding enthalpy (calorimetric) [kcal/mol] | unfolding enthalpy (van 't Hoff) [kcal/mol] |
| --- | --- | --- | --- |
| G55Q | 64.5 | 108 | 111 |

Same assay, conditions: Homo sapiens; pH 3.09; Thermal; DSC; glycine 0.05 M; reversible: yes; structure 1LZ1; whole UniProt chain shown

| Variant | Tm [°C] | unfolding enthalpy (calorimetric) [kcal/mol] | unfolding enthalpy (van 't Hoff) [kcal/mol] |
| --- | --- | --- | --- |
| G55Q | 70.1 | 113 | 118 |

From FireProtDB (doi:10.1093/protein/12.8.663)
